Among the data in paper PMC3210151 (2011) are Kd, koff and kon values, retold here.

Test [1] addresses RON Sema (Glu25-Gly524) (human) (UniProt Q04912). Kind of test: SPR; same sensorgrams as the kinetic analysis (RON constructs amine-coupled to CM5, MSPβ as analyte, 10 mM Na-HEPES pH 8.0, 150 mM NaCl, 0.005% P20, 25°C); Kd from an equilibrium model. On the technique in general: Surface plasmon resonance follows binding to a sensor surface in real time, without labels.
In test [2] the target is RON Sema-PSI-IPT1 (Glu25-Glu683) (human) (UniProt Q04912). Described as above.
For test [3], the target named is RON Sema-PSI (Glu25-Pro568) (human) (UniProt Q04912). The test is described as above.
Test [4] addresses RON Sema-PSI-IPT1–4 (Glu25-Ser956) (human) (UniProt Q04912). Described as above.
Test [5] has as its target RON Sema (Glu25-Gly524) (human) (UniProt Q04912). Kind of test: SPR; Biacore T100; RON constructs amine-coupled to a CM5 chip; MSPβ as analyte (wild type 5-500 nM, R689C 32-2000 nM); 10 mM Na-HEPES pH 8.0, 150 mM NaCl, 0.005% P20, 25°C; global fit to a 1:1 Langmuir kinetic model.
Test [6] concerns the target RON Sema-PSI-IPT1 (Glu25-Glu683) (human) (UniProt Q04912). The description is as above.
Test [7] addresses RON Sema-PSI (Glu25-Pro568) (human) (UniProt Q04912). Described as above.
Test [8] deals with RON Sema-PSI-IPT1–4 (Glu25-Ser956) (human) (UniProt Q04912). The description is as above.
Test [9] deals with RON constructs. Kind of test: SPR; dimeric MSPβ R689C on RON constructs; method and conditions not told in the sentence (SPR is the paper's only binding method).
Test [10] deals with wild type MSPβ (macrophage stimulating protein β-chain with the adjoining 19 residues of the α-chain, … (human, UniProt P26927 465-711, C672S)). Kind of test: SPR; solution competition.
The target in test [11] is MSPβ R689C (Phe465-Gly711, C672S, R689C) (human, UniProt P26927 465-711, C672S | R689C). Kind of test: SPR; solution competition.

In general, Kd refers to the concentration at which binding is half-saturated. Lower therefore signals a tighter complex. The term koff denotes the rate constant with which the complex falls apart. By kon is commonly meant the second-order rate constant of association. Higher therefore signals fast association.

Turning to “MSPβ R689C (Phe465-Gly711, C672S, R689C) (from UniProt P26927 465-711) (domain or fragment)”, the Kd came out at 139 nM in [1]; 154 nM in test [2]; 244 nM in test [3]; 158 nM in test [4]; 170 nM in [5]; 148 nM in [6]. For the same molecule, the values for the Kd in test [7] and in test [8] were 233 nM and 157 nM, respectively. For the same molecule, the koff in test [5] is 0.081 s⁻¹; in test [6] it was 0.129 s⁻¹; in [7], 0.062 s⁻¹; in [8], 0.055 s⁻¹. Also, the kon worked out at 480000 M⁻¹ s⁻¹ in test [5], 870000 M⁻¹ s⁻¹ in test [6], 270000 M⁻¹ s⁻¹ in test [7] and 350000 M⁻¹ s⁻¹ in test [8].

For the molecule “dimeric MSPβ R689C (from UniProt P26927 465-711) (complex)”, the Kd in [9] was 3.7 to 4.9 nM.

As to “wild type MSPβ (macrophage stimulating protein β-chain with the adjoining 19 residues of the α-chain, Phe465-Gly711, C672S) (from UniProt P26927 465-711) (domain or fragment)”, the Kd in test [1] was determined as 16.4 nM; in [2] it was 17.8 nM; in test [3], 32 nM; in test [4], 22.6 nM; in test [5] it was 13.3 nM; in [6], 15.1 nM. For the same molecule, the Kd in test [7] is 21.2 nM; in [8], 13.5 nM. Besides, the koff in [5] is 0.031 s⁻¹; in [6] it was 0.027 s⁻¹; in [7] it was 0.028 s⁻¹; in [8], 0.023 s⁻¹. Further, the kon amounted to 2.31e+06 M⁻¹ s⁻¹ in test [5], 1.76e+06 M⁻¹ s⁻¹ in [6], 1.33e+06 M⁻¹ s⁻¹ in test [7] and 1.69e+06 M⁻¹ s⁻¹ in [8].

B1: RON Sema-PSI-IPT1–4 (Glu25-Ser956) (domain or fragment)
chain: EDWQCPRTPYAASRDFDVKYVVPSFSAGGLVQAMVTYEGDRNESAVFVAIRNRLHVLGPDLKSVQSLATGPAGDPGCQTCAACGPGPHGPPGDTDTKVLVLDPALPALVSCGSSLQGRCFLHDLEPQGTAVHLAAPACLFSAHHNRPDDCPDCVASPLGTRVTVVEQGQASYFYVASSLDAAVAASFSPRSVSIRRLKADASGFAPGFVALSVLPKHLVSYSIEYVHSFHTGAFVYFLTVQPASVTDDPSALHTRLARLSATEPELGDYRELVLDCRFAPKLVPRGSPEGGQPYPVLRVAHSAPVGAQLATELSIAEGQEVLFGVFVTGKDGGPGVGPNSVVCAFPIDLLDTLIDEGVERCCESPVHPGLRRGLDFFQSPSFCPNPPGLEALSPNTSCRHFPLLVSSSFSRVDLFNGLLGPVQVTALYVTRLDNVTVAHMGTMDGRILQVELVRSLNYLLYVSNFSLGDSGQPVQRDVSRLGDHLLFASGDQVFQVPIQGPGCRHFLTCGRCLRAWHFMGCGWCGNMCGQQKECPGSWQQDHCPPKLTEFHPHSGPLRGSTRLTLCGSNFYLHPSGLVPEGTHQVTVGQSPCRPLPKDSSKLRPVPRKDFVEEFECELEPLGTQAVGPTNVSLTVTNMPPGKHFRVDGTSVLRGFSFMEPVLIAVQPLFGPRAGGTCLTLEGQSLSVGTSRAVLVNGTECLLARVSEGQLLCATPPGATVASVPLSLQVGGAQVPGSWTFQYREDPVVLSISPNCGYINSHITICGQHLTSAWHLVLSFHDGLRAVESRCERQLPEQQLCRLPEYVVRDPQGWVAGNLSARGDGAAGFTLPGFRFLPPPHPPSANLVPLKPEEHAIKFEYIGLGAVADCVGINVTVGGESCQHEFRGDMVVCPLPPSLQLGQDGAPLQVCVDGECHILGRVVRPGPDGVPQS
Take B1: the Kd in [10] was 52.8 nM; in test [11], 381 nM.

B2: RON Sema (Glu25-Gly524) (domain or fragment)
chain: EDWQCPRTPYAASRDFDVKYVVPSFSAGGLVQAMVTYEGDRNESAVFVAIRNRLHVLGPDLKSVQSLATGPAGDPGCQTCAACGPGPHGPPGDTDTKVLVLDPALPALVSCGSSLQGRCFLHDLEPQGTAVHLAAPACLFSAHHNRPDDCPDCVASPLGTRVTVVEQGQASYFYVASSLDAAVAASFSPRSVSIRRLKADASGFAPGFVALSVLPKHLVSYSIEYVHSFHTGAFVYFLTVQPASVTDDPSALHTRLARLSATEPELGDYRELVLDCRFAPKLVPRGSPEGGQPYPVLRVAHSAPVGAQLATELSIAEGQEVLFGVFVTGKDGGPGVGPNSVVCAFPIDLLDTLIDEGVERCCESPVHPGLRRGLDFFQSPSFCPNPPGLEALSPNTSCRHFPLLVSSSFSRVDLFNGLLGPVQVTALYVTRLDNVTVAHMGTMDGRILQVELVRSLNYLLYVSNFSLGDSGQPVQRDVSRLGDHLLFASGDQVFQVPIQG
Consider B2, for which, in test [10], binding was characterised by a dissociation constant (Kd) of 17.6 nM.
